As a reminder, the stoichiometry N is the number of molecules, sites or subunits per partner or assembly.

The text below walks through data of paper PMC4911367.

Assay [1] has as its target RLC-depleted porcine cardiac (PC) myosin (porcine) (UniProt P79293). As to the kind of experiment: reconstitution of RLC-depleted skinned muscle strips, SDS-PAGE; skinned porcine papillary muscle strips depleted of RLC with CDTA/Triton X-100, incubated with 40 uM RLC-WT or IVS6-1 and 2 mM DTT in pCa 8 solution, then RLC and TnC; washed, SDS-PAGE.
For assay [2] the target is unchanged. As to the kind of experiment: co-sedimentation; ~2.8 uM RLC-depleted PC myosin titrated with 0.1-14 uM human WT or IVS6-1 RLC (molar ratio 0.1-5.0) in 0.4 M KCl, 50 mM MOPS pH 7.0, 2 mM MgCl2, 1 mM DTT, with BSA, 30 min room temperature; myosin precipitated with 13 vol ice-cold water, pellet on SDS-PAGE, RLC/ELC band ratio; apparent Kd.
Assay [3] deals with pyrene labeled rabbit skeletal F-actin (rabbit) (UniProt P68135).
Assay [4] has the same target. As to the kind of experiment: other fluorescence titration; 0.5 uM pyrene labeled F-actin titrated with myosin in 0.05 uM increments to ~2 fold molar excess, rigor conditions; excitation 340 nm, emission 407 nm; quadratic fit; apparent Kd and stoichiometry n.
Assay [5] has the same target. As to the kind of experiment: stopped-flow pyrene fluorescence; 0.25 uM myosin with 0.25 uM pyrene labeled F-actin (0.25 uM phalloidin) in rigor buffer 0.4 M KCl, 1 mM DTT, 10 mM MOPS pH 7.0, mixed 1:1 with 10-150 uM MgATP; MgATP-induced dissociation, single exponential fit.

Take “human cardiac RLC IVS6-1 (c403-1G>C) splice site mutant protein (from UniProt P10916 1-134) (natural protein)”: the percent fiber reconstitution in assay [1] was found to be 100%. For the same molecule, in assay [2], the Kd worked out at 4410 nM.
In the case of “native porcine cardiac (PC) myosin (from UniProt P79293 1-1935) (complex)”, in assay [3], the Km (actin) of actin-activated myosin ATPase activity was found to be 1.93 µM and the Vmax of actin-activated myosin ATPase activity (F-actin 0.1-25 uM, ~1.9 uM myosin, 30°C) amounted to 0.24 s⁻¹. Further, in assay [4], the Kd came to 2.9 nM and the stoichiometry N was 0.47. Further, in assay [5], the k1, MgATP-induced actin-myosin dissociation rate at 10 μM MgATP turned out to be 6.2 s⁻¹; the k1, MgATP-induced actin-myosin dissociation rate at 25 μM MgATP was found to be 15.8 s⁻¹; the k1, MgATP-induced actin-myosin dissociation rate at 40 μM MgATP was determined as 24.5 s⁻¹; the k1, MgATP-induced actin-myosin dissociation rate at 60 μM MgATP came out at 33.4 s⁻¹. In assay [5], this molecule showed a k1, MgATP-induced actin-myosin dissociation rate at 80 μM MgATP of 47.2 s⁻¹; a k1, MgATP-induced actin-myosin dissociation rate at 125 μM MgATP of 65.9 s⁻¹; a k1, MgATP-induced actin-myosin dissociation rate at 150 μM MgATP of 86.8 s⁻¹.
With “porcine cardiac myosin reconstituted with human cardiac RLC IVS6-1 (from UniProt P79293 1-1935; P10916 1-134) (complex)”, in assay [3], the Km (actin) of actin-activated myosin ATPase activity was found to be 3.33 µM and the Vmax of actin-activated myosin ATPase activity (F-actin 0.1-25 uM, ~1.9 uM myosin, 30°C) worked out at 0.15 s⁻¹. In addition, in assay [4], the Kd was 16.7 nM and the stoichiometry N amounted to 0.59. In assay [5], this molecule returned a k1, MgATP-induced actin-myosin dissociation rate at 10 μM MgATP of 5.5 s⁻¹; a k1, MgATP-induced actin-myosin dissociation rate at 25 μM MgATP of 14.4 s⁻¹; a k1, MgATP-induced actin-myosin dissociation rate at 40 μM MgATP of 21 s⁻¹; a k1, MgATP-induced actin-myosin dissociation rate at 60 μM MgATP of 30.5 s⁻¹. For the same molecule, in assay [5], the k1, MgATP-induced actin-myosin dissociation rate at 80 μM MgATP is 41.4 s⁻¹; the k1, MgATP-induced actin-myosin dissociation rate at 125 μM MgATP was 57.5 s⁻¹; the k1, MgATP-induced actin-myosin dissociation rate at 150 μM MgATP was determined as 67.8 s⁻¹.
“porcine cardiac myosin reconstituted with human cardiac RLC WT (from UniProt P79293 1-1935; P10916 1-166) (complex)”: in assay [3], the Km (actin) of actin-activated myosin ATPase activity stood at 3.67 µM and the Vmax of actin-activated myosin ATPase activity (F-actin 0.1-25 uM, ~1.9 uM myosin, 30°C) is 0.25 s⁻¹. In addition, in assay [4], the Kd was 4.6 nM and the stoichiometry N was 0.51. In assay [5], the k1, MgATP-induced actin-myosin dissociation rate at 10 μM MgATP was 7.4 s⁻¹; the k1, MgATP-induced actin-myosin dissociation rate at 25 μM MgATP was determined as 15.6 s⁻¹; the k1, MgATP-induced actin-myosin dissociation rate at 40 μM MgATP worked out at 19.9 s⁻¹; the k1, MgATP-induced actin-myosin dissociation rate at 60 μM MgATP was determined as 36 s⁻¹. Moreover, in assay [5], the k1, MgATP-induced actin-myosin dissociation rate at 80 μM MgATP was 50.4 s⁻¹; the k1, MgATP-induced actin-myosin dissociation rate at 125 μM MgATP came out at 70.4 s⁻¹; the k1, MgATP-induced actin-myosin dissociation rate at 150 μM MgATP was 88.7 s⁻¹.

B1: wild-type (WT) human cardiac (ventricular/slow-twitch skeletal) myosin regulatory light chain (natural protein)
chain: MAPKKAKKRAGGANSNVFSMFEQTQIQEFKEAFTIMDQNRDGFIDKNDLRDTFAALGRVNVKNEEIDEMIKEAPGPINFTVFLTMFGEKLKGADPEETILNAFKVFDPEGKGVLKADYVREMLTTQAERFSKEEVDQMFAAFPPDVTGNLDYKNLVHIITHGEEKD
For B1, in assay [1], the percent fiber reconstitution worked out at 100%. In addition, in assay [2], the Kd came out at 1420 nM.
